Literature values in PMC3962485.

Target: Hsc70 (UniProt P11142)
UniProt P11142, sequence (P11142 2-646): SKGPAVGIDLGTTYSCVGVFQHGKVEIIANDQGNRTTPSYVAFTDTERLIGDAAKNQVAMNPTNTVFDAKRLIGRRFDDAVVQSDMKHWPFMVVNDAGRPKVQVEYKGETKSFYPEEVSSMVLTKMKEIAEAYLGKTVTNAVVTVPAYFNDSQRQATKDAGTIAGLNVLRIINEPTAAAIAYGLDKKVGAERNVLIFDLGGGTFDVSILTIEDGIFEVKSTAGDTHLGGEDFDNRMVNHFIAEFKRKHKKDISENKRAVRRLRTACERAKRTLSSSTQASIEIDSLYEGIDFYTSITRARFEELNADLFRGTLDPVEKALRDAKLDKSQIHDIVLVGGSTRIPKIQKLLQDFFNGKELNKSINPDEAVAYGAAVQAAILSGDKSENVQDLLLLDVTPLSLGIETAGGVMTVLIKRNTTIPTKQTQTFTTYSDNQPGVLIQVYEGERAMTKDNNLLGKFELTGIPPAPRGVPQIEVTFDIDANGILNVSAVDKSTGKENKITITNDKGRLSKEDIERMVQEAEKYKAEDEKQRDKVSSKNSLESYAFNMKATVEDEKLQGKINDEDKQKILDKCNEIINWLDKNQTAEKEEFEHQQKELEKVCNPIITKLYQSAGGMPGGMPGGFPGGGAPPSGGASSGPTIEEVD

**Q.** Which Kd does the source give for Snl1-M (from UniProt P40548) here?
**A.** Its Kd is 5 µM.
